The supplement of paper PMC10724198
± gives the standard deviation of the averaged measurements.

Legend:
[1] = test system: Saccharomyces cerevisiae; assay: protein stability index of tFT-peptide fusion (C-terminal peptide) (PSI (0-1 scale)); higher = more stable (slower turnover); conditions: genetic background: wild type; temperature: 30 C
[2] = test system: Saccharomyces cerevisiae; assay: as above
Experimental: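 MPS profiling in S. cerevisiae of the tFT-X12 degron library: putative degron peptides plus stable controls, 12 aa, fused to the C-terminus of a sfGFP-mCherry timer. Cells are FACS-sorted into 8 mCherry/sfGFP bins and deep-sequenced. PSI runs from 0 (unstable) to 1 (stable). Backgrounds are wild type, das1Δ and doa10Δ at 30 °C, and wild type, das1Δ, cdc34-1 and cdc53-1 at 37 °C; 2-3 technical replicates each.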

[3] = genetic background: cdc34-1, temperature: 37 C
[4] = genetic background: cdc53-1, temperature: 37 C
[5] = genetic background: das1 deletion, temperature: 30 C
[6] = genetic background: das1 deletion, temperature: 37 C
[7] = genetic background: doa10 deletion, temperature: 30 C
[8] = genetic background: wild type, temperature: 30 C
[9] = genetic background: wild type, temperature: 37 C
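Note: PSI is a weighted mean of sequencing reads over stability bins, variants kept only with over 10 reads, mCherry proximal and sfGFP distal, peptide attached via GGGS linker.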

| Sequence | protein stability index [1] | protein stability index [2, 3] | protein stability index [2, 4] | protein stability index [2, 5] | protein stability index [2, 6] | protein stability index [2, 7] | protein stability index [2, 8] | protein stability index [2, 9] |
| --- | --- | --- | --- | --- | --- | --- | --- | --- |
| PDPIFGEWVYMV | 0.327 ± 0.0015 | 0.57943 ± 4.3e-05 | 0.72148 ± 0.00041 | 0.644 ± 0.0072 | 0.7555 ± 0.0066 | 0.249 ± 0.00039 | 0.26 ± 0.02 | 0.384 ± 0.0032 |
| VGLWCWSFVLVW | 0.156 ± 0.038 | 0.0589 ± 0.018 | 0.0934 ± 0.034 | 0.11 ± 0.03 | 0.189 ± 0.0028 | 0.0842 ± 0.021 | 0.103 ± 0.023 | 0.153 ± 0.0027 |
| FFSFFLSFRLWF | 0.449 ± 0.11 | 0.365 ± 0.061 | 0.298 ± 0.024 | 0.433 ± 0.038 | 0.456 ± 0.012 | 0.596 ± 0.04 | 0.429 ± 0.038 | 0.434 ± 0.058 |
| LVSLCYAYPRYC | 0.387 ± 0.025 | 0.646 ± 0.016 | 0.685 ± 0.008 | 0.532 ± 0.016 | 0.7025 ± 0.0052 | 0.2577 ± 0.00032 | 0.279 ± 0.031 | 0.5826 ± 0.0029 |
| IRVLACFLFAVS | 0.17 ± 0.01 | 0.202 ± 0.016 | 0.305 ± 0.017 | 0.172 ± 0.0094 | 0.32 ± 0.0072 | 0.095 ± 0.0081 | 0.12 ± 0.022 | 0.247 ± 0.025 |
| GFAFFIGLSFAF | 0.475 ± 0.034 | 0.559 ± 0.015 | 0.588 ± 0.012 | 0.459 ± 0.025 | 0.5794 ± 0.0051 | 0.465 ± 0.0074 | 0.461 ± 0.01 | 0.565 ± 0.011 |
| NDVGGYFYVCSE | 0.578 ± 0.12 | 0.682 ± 0.013 | 0.749 ± 0.013 | 0.641 ± 0.012 | 0.7142 ± 0.0056 | 0.63 ± 0.011 | 0.648 ± 0.024 | 0.735 ± 0.023 |
| GGTGGAGSRGQI | 0.499 ± 0.099 | 0.641 ± 0.069 | 0.741 ± 0.01 | 0.6181 ± 0.0046 | 0.724 ± 0.02 | 0.644 ± 0.0041 | 0.657 ± 0.011 | 0.7316 ± 0.007 |
| LLFLVCFFPSIS | 0.454 ± 0.05 | 0.46 ± 0.061 | 0.534 ± 0.016 | 0.311 ± 0.045 | 0.549 ± 0.033 | 0.304 ± 0.0092 | 0.313 ± 0.043 | 0.52 ± 0.036 |
| GVSRRWFSLRCI | 0.214 ± 0.0074 | 0.627 ± 0.039 | 0.717 ± 0.015 | 0.612 ± 0.029 | 0.75 ± 0.013 | 0.125 ± 0.009 | 0.15 ± 0.011 | 0.2424 ± 0.0022 |
| QITIYPIPLARF | 0.79 ± 0.065 | 0.951 ± 0.015 | 0.937 ± 0.0099 | 0.807 ± 0.015 | 0.88 ± 0.0098 | 0.808 ± 0.027 | 0.867 ± 0.015 | 0.8924 ± 0.0076 |
| WGCTGGRGRLVC | 0.428 ± 0.049 | 0.69 ± 0.025 | 0.74 ± 0.013 | 0.643 ± 0.029 | 0.7405 ± 0.0052 | 0.254 ± 0.011 | 0.295 ± 0.013 | 0.555 ± 0.024 |
| FLPFRVFNFSLV | 0.38 ± 0.063 | 0.659 ± 0.031 | 0.713 ± 0.015 | 0.653 ± 0.035 | 0.725 ± 0.015 | 0.22 ± 0.011 | 0.229 ± 0.026 | 0.441 ± 0.05 |
| FPPHFLPLVFLS | 0.103 ± 0.0049 | 0.436 ± 0.035 | 0.5867 ± 0.0031 | 0.56 ± 0.026 | 0.67 ± 0.0083 | 0.0786 ± 0.017 | 0.0804 ± 0.02 | 0.0988 ± 0.0048 |
| FLFLFIFYFFCC | 0.389 ± 0.083 | 0.269 ± 0.046 | 0.367 ± 0.0077 | 0.327 ± 0.024 | 0.476 ± 0.02 | 0.315 ± 0.0036 | 0.314 ± 0.032 | 0.401 ± 0.06 |
| LLVIAIKVPANS | 0.429 ± 0.024 | 0.489 ± 0.013 | 0.485 ± 0.0072 | 0.352 ± 0.025 | 0.507 ± 0.018 | 0.337 ± 0.036 | 0.358 ± 0.012 | 0.485 ± 0.00075 |
| VFRRWGLIGVIV | 0.378 ± 0.0068 | 0.306 ± 0.026 | 0.326 ± 0.022 | 0.278 ± 0.041 | 0.434 ± 0.018 | 0.181 ± 0.0038 | 0.226 ± 0.032 | 0.353 ± 0.0088 |
| LFTTYVFLVFFQ | 0.372 ± 0.012 | 0.345 ± 0.011 | 0.474 ± 0.0096 | 0.337 ± 0.027 | 0.511 ± 0.0082 | 0.2692 ± 0.0019 | 0.29 ± 0.018 | 0.4367 ± 0.0009 |
| SVHKYGFIKEIN | 0.531 ± 0.047 | 0.732 ± 0.026 | 0.70852 ± 0.00021 | 0.668 ± 0.061 | 0.761 ± 0.023 | 0.473 ± 0.035 | 0.474 ± 0.046 | 0.667 ± 0.016 |
| VRGSPNVMWKSQ | 0.398 ± 0.035 | 0.675 ± 0.028 | 0.778 ± 0.01 | 0.647 ± 0.028 | 0.733 ± 0.028 | 0.194 ± 0.0042 | 0.238 ± 0.022 | 0.508 ± 0.033 |

| Sequence | protein stability index [1] | protein stability index [2, 3] | protein stability index [2, 4] | protein stability index [2, 5] | protein stability index [2, 6] | protein stability index [2, 7] | protein stability index [2, 8] | protein stability index [2, 9] |
| --- | --- | --- | --- | --- | --- | --- | --- | --- |
| RFKEKVSIIHKQ | 0.207 ± 0.054 | 0.6446 ± 0.0022 | 0.665 ± 0.061 | 0.693 ± 0.04 | 0.74 ± 0.017 | 0.11 ± 0.0081 | 0.106 ± 0.046 | 0.12487 ± 0.0001 |
| RLPYSLTFFLLC | 0.134 ± 0.009 | 0.414 ± 0.0067 | 0.5789 ± 0.0027 | 0.484 ± 0.038 | 0.576 ± 0.0034 | 0.07289 ± 0.00032 | 0.0628 ± 0.018 | 0.0714 ± 0.0077 |
| MFWKFVFRGFWF | 0.338 ± 0.018 | 0.694 ± 0.064 | 0.739 ± 0.008 | 0.641 ± 0.034 | 0.7791 ± 0.0044 | 0.221 ± 0.0052 | 0.259 ± 0.019 | 0.4748 ± 0.0044 |
| LVVAVLKIIMSS | 0.124 ± 0.027 | 0.13 ± 0.023 | 0.201 ± 0.00098 | 0.2 ± 0.033 | 0.349 ± 0.013 | 0.0697 ± 0.012 | 0.0742 ± 0.023 | 0.0596 ± 0.0031 |
| FFVFVVFFCFGL | 0.383 ± 0.047 | 0.321 ± 0.008 | 0.438 ± 0.035 | 0.303 ± 0.023 | 0.444 ± 0.0091 | 0.2809 ± 0.0014 | 0.303 ± 0.0093 | 0.41 ± 0.014 |
| VCLVFVVRPCIR | 0.4904 ± 0.0027 | 0.549 ± 0.021 | 0.578 ± 0.023 | 0.436 ± 0.033 | 0.606 ± 0.022 | 0.401 ± 0.0078 | 0.414 ± 0.023 | 0.599 ± 0.0089 |
| ALNFFSLFMLFR | 0.398 ± 0.048 | 0.221 ± 0.058 | 0.168 ± 0.07 | 0.325 ± 0.041 | 0.422 ± 0.022 | 0.603 ± 0.0092 | 0.325 ± 0.034 | 0.358 ± 0.022 |
| GGWFFWVGAWVV | 0.193 ± 0.0025 | 0.173 ± 0.005 | 0.346 ± 0.028 | 0.202 ± 0.026 | 0.3957 ± 0.0013 | 0.102 ± 0.018 | 0.121 ± 0.025 | 0.214 ± 0.0027 |
| KKNITRLKNKMT | 0.416 ± 0.14 | 0.535 ± 0.032 | 0.676 ± 0.033 | 0.678 ± 0.031 | 0.691 ± 0.059 | 0.212 ± 0.045 | 0.199 ± 0.093 | 0.392 ± 0.086 |
| RLINCIYVLMLP | 0.398 ± 0.029 | 0.567 ± 0.042 | 0.569 ± 0.0072 | 0.412 ± 0.029 | 0.606 ± 0.0037 | 0.261 ± 0.015 | 0.274 ± 0.033 | 0.513 ± 0.024 |
| HRNILSIIIKNL | 0.109 ± 0.046 | 0.541 ± 0.083 | 0.681 ± 0.027 | 0.642 ± 0.057 | 0.685 ± 0.029 | 0.0819 ± 0.039 | 0.0771 ± 0.015 | 0.1025 ± 0.00088 |
| PFAFLSLVLLLP | 0.418 ± 0.0045 | 0.51 ± 0.017 | 0.5103 ± 0.0028 | 0.418 ± 0.029 | 0.5176 ± 0.0043 | 0.383 ± 0.027 | 0.35 ± 0.023 | 0.482 ± 0.02 |
| LILRVLFLFEPC | 0.42 ± 0.025 | 0.4385 ± 0.0028 | 0.4842 ± 0.0035 | 0.389 ± 0.026 | 0.511 ± 0.0049 | 0.395 ± 0.022 | 0.368 ± 0.031 | 0.481 ± 0.0066 |
| IFLLLRRIIALS | 0.107 ± 0.12 | 0.126 ± 0.0094 | 0.326 ± 0.044 | 0.411 ± 0.047 | 0.554 ± 0.023 | 0.0418 ± 0.017 | 0.0337 ± 0.0068 | 0.0499 ± 0.018 |
| SFLLVWCLLPEI | 0.415 ± 0.0064 | 0.364 ± 0.056 | 0.479 ± 0.096 | 0.309 ± 0.029 | 0.4729 ± 0.0046 | 0.2695 ± 0.0018 | 0.299 ± 0.035 | 0.451 ± 0.033 |
| AWVEVYVISIGV | 0.19 ± 0.032 | 0.192 ± 0.024 | 0.257 ± 0.0074 | 0.161 ± 0.022 | 0.324 ± 0.012 | 0.132 ± 0.0032 | 0.153 ± 0.011 | 0.2966 ± 0.0016 |
| SFLLGCCWLVLC | 0.155 ± 0.0099 | 0.222 ± 0.04 | 0.309 ± 0.0045 | 0.27 ± 0.03 | 0.3934 ± 0.0034 | 0.1353 ± 0.00058 | 0.116 ± 0.0073 | 0.127 ± 0.0028 |
| GCLGYTLSCFTY | 0.401 ± 0.015 | 0.563 ± 0.014 | 0.64 ± 0.038 | 0.525 ± 0.051 | 0.626 ± 0.0015 | 0.519 ± 0.019 | 0.51 ± 0.027 | 0.643 ± 0.015 |
| LGCFGSSFVFCC | 0.23 ± 0.016 | 0.565 ± 0.015 | 0.668 ± 0.02 | 0.553 ± 0.029 | 0.685 ± 0.015 | 0.138 ± 0.0034 | 0.155 ± 0.017 | 0.355 ± 0.0038 |
